Data: the Human Domainome abundance scans (Beltran et al. 2025)
± gives the uncertainty stated by the source.

B1: Death-inducer obliterator 1, residues 263 to 321; numbered along this chain, Q9BTC0 (parent)
chain: GYDPNALYCICRQPHNNRFMICCDRCEEWFHGDCVGISEARGRLLERNGEDYICPNCTI

Variants of: B1
Assay: abundance fitness (aPCA) (normalised: wild type 0, dead -1); higher = more abundant; growth selection in yeast, the domain comes from the species named
Conditions: Homo sapiens

Abundance fitness: each site, then its substitutions
Y2: H 0.156 ± 0.09; S 0.116 ± 0.083; G 0.165 ± 0.085; D -0.03 ± 0.16; N 0.269 ± 0.15; F 0.351 ± 0.1; I 0.298 ± 0.16; M 0.161 ± 0.1; C 0.039 ± 0.098; V -0.112 ± 0.19; E 0.347 ± 0.12; Q 0.161 ± 0.18; A -0.03 ± 0.091; L 0.342 ± 0.06; R 0.211 ± 0.07; K 0.191 ± 0.12; P 0.102 ± 0.1
A6: K -0.412 ± 0.1; F -0.198 ± 0.17; P -0.471 ± 0.1; M 0.102 ± 0.082; T -0.07 ± 0.1; L -0.33 ± 0.078; S -0.511 ± 0.12; D -0.434 ± 0.12; G -0.306 ± 0.058; W -0.569 ± 0.13; V -0.066 ± 0.064; I -0.279 ± 0.12; N 0.041 ± 0.13; Y -0.806 ± 0.21; R -0.419 ± 0.068; E -0.328 ± 0.21; Q -0.105 ± 0.12
Y8: D 0.135 ± 0.1; E 0.038 ± 0.12; Q -0.019 ± 0.081; K 0.115 ± 0.059; T 0.264 ± 0.1; R 0.115 ± 0.053; I 0.165 ± 0.12; M 0.07 ± 0.079; N 0.192 ± 0.088; P 0.059 ± 0.075; F 0.035 ± 0.12; S 0.125 ± 0.056; H 0.03 ± 0.09; L 0.048 ± 0.047; C 0.069 ± 0.092; W -0.154 ± 0.094; V 0.041 ± 0.044
N5: E -0.184 ± 0.1; L -0.331 ± 0.084; H -0.433 ± 0.11; D 0.004 ± 0.072; G -0.273 ± 0.1; R -0.211 ± 0.063; A -0.413 ± 0.092; I -0.242 ± 0.11; V -0.186 ± 0.13; K -0.23 ± 0.11; Q -0.112 ± 0.085; P -0.796 ± 0.2; S -0.259 ± 0.069; F -0.189 ± 0.13; C -0.497 ± 0.11; Y -0.623 ± 0.16; M -0.113 ± 0.093; T -0.319 ± 0.082; W -0.793 ± 0.32
C9: G -0.535 ± 0.083; N -1.01 ± 0.31; V -0.552 ± 0.069; Q -0.495 ± 0.089; R -0.534 ± 0.042; S -0.859 ± 0.096; A -0.636 ± 0.1; Y -0.763 ± 0.22; T -0.743 ± 0.14; W -0.543 ± 0.075; K -1 ± 0.28; I -0.823 ± 0.33; M -0.606 ± 0.12; P -0.877 ± 0.24; E -0.664 ± 0.12; F -0.659 ± 0.15; L -0.813 ± 0.083
L7: H 0.119 ± 0.079; M 0.1 ± 0.072; C -0.062 ± 0.078; P -0.119 ± 0.076; G 0.086 ± 0.049; Y 0.002 ± 0.11; E 0.032 ± 0.081; Q 0.026 ± 0.081; K -0.012 ± 0.23; N 0.009 ± 0.098; W -0.055 ± 0.15; F 0.042 ± 0.083; D -0.415 ± 0.1; T -0.006 ± 0.066; I 0.106 ± 0.088; R 0.008 ± 0.048
P4: H -0.062 ± 0.25; M 0.021 ± 0.059; T -0.147 ± 0.074; N -0.036 ± 0.12; G -0.122 ± 0.067; S 0.091 ± 0.078; R 0.076 ± 0.062; I -0.14 ± 0.17; C 0.063 ± 0.084; L 0.036 ± 0.079; Y -0.258 ± 0.19; Q -0.043 ± 0.35; K 0.297 ± 0.22; A -0.075 ± 0.083; V -0.183 ± 0.094; F 0.264 ± 0.17; W -0.086 ± 0.085; D 0.354 ± 0.26; E -0.213 ± 0.23
I10: S 0.018 ± 0.06; L -0.105 ± 0.048; H 0.105 ± 0.077; E -0.143 ± 0.073; D -0.418 ± 0.25; G -0.217 ± 0.11; M 0.035 ± 0.065; K -0.064 ± 0.087; A -0.084 ± 0.068; T 0.017 ± 0.063; Q -0.182 ± 0.22; N 0.011 ± 0.09
G1: L 0.266 ± 0.12; V 0.323 ± 0.098; W -0.336 ± 0.21; I 0.16 ± 0.14; Y 0.132 ± 0.13; S 0.199 ± 0.065; Q -0.167 ± 0.21; M -0.144 ± 0.34; D 0.181 ± 0.056; R -0.134 ± 0.14; F 0.058 ± 0.17; C 0.138 ± 0.088; P -0.104 ± 0.4; N 0.109 ± 0.11
D3: V -0.177 ± 0.078; W -0.163 ± 0.11; K 0.123 ± 0.084; T 0.023 ± 0.12; E 0.043 ± 0.072; N 0.155 ± 0.081; A -0.735 ± 0.14; H 0.111 ± 0.12; Q -0.004 ± 0.18; F 0.025 ± 0.097; G -0.243 ± 0.096; P 0.135 ± 0.11; I -0.007 ± 0.099; S 0.174 ± 0.099; R -0.049 ± 0.075; M 0.199 ± 0.066; C -0.048 ± 0.12; Y 0.002 ± 0.069; L -0.024 ± 0.048
